Source: patent US20130251724A1 (GlaxoSmithKline, published 2013)

T1: Human OSM (human, UniProt P13725 26-221)
T1 construct: Recombinant human OSM; also called hOSM; human Oncostatin M
T1 sequence: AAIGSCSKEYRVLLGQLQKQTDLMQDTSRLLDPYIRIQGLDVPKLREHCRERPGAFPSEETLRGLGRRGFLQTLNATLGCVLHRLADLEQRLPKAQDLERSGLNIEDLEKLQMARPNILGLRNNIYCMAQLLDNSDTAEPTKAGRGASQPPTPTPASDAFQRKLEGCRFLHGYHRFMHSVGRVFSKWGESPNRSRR


Tests used:
Human OSM [1] = target: T1, Human OSM; assay: SPR (ProteOn XPR36 or Biacore T100), captured supernatant, OSM as analyte
Experimental: The initial kinetic analyses for the CDRH3 screen were carried out on the ProteOn XPR36 (Biorad Laboratories) and certain supernatants were selected for more accurate kinetic analysis on the BiaCore T100.
For the ProteOn analysis, anti-human IgG (GE Healthcare/Biacore BR-1008-39) was coupled to a GLM chip (Biorad Laboratories 176-5012) by primary amine coupling. The CDRH3 variants were captured directly on to this surface and recombinant human OSM was passed over the captured antibody surface at 256, 64, 16, 4 and 1 nM, with a buffer injection alone (i.e. 0 nM) used to double reference the binding curves. Following the OSM binding event, the capture surfaces were regenerated: with 3M MgCl₂ the regeneration removed the previously captured antibody ready for another cycle of capture and binding analysis. The data was then fitted to the 1:1 model (with mass transport) inherent to the ProteOn analysis software. The run was carried out using HBS-EP (Biacore/GE-Healthcare BR-1006-69) and the analysis temperature was 25° C.
A similar method was used for analysis of constructs using the Biacore T100, anti-human IgG (GE Healthcare/Biacore BR-1008-39) was coupled to a CM5 chip (GE Healthcare/Biacore BR-1006-68) by primary amine coupling, antibodies were captured on this surface and recombinant human OSM was passed over the captured antibody surface at 256, 64, 16, 4 and 1 nM, with a buffer injection alone (i.e. 0 nM) used to double reference the binding curves. Regeneration was by using pulses of 3M 3M MgCl₂ or 100 mM phosphoric acid or using both reagents. The data was fitted to the 1:1 model inherent to the Biacore T100 analysis software. The run was carried out using HBS-EP (Biacore/GE-Healthcare BR-1006-69) and the analysis temperature was 25° C.

Human OSM [2] = target: T1, Human OSM; assay: BIAcore kinetics, transfection supernatant

Binder	Kd (Human OSM [1])	Kd (Human OSM [2])	koff (Human OSM [2])	kon (Human OSM [2])
Pos 95 Ala (antibody, V domains shown, the same holds for f2 to f171; also called CDRH3 D95>A) VH: EVQLVESGGGLVQPGGSLRLSCAASGFTFSSYAMSWVRQAPGKGLEWVATISDGGSFTYYLDNVRGRFTISRDNAKNSLYLQMNSLRAEDTAVYYCARAVGHTTFWYFDVWGRGTLVTVSS VL: DIVMTQSPDSLAVSLGERATINCRASKSVSAAGYNFMHWYQQKPGQPPKVLIYYASNLESGVPDRFSGSGSGTDFTLTISSLQAEDVAVYYCLHSREFPFTFGGGTKVEIKR	0.576 nM	–	–	–
Pos 95 Gln (antibody, V domains shown, also called CDRH3 D95>Q) VH: EVQLVESGGGLVQPGGSLRLSCAASGFTFSSYAMSWVRQAPGKGLEWVATISDGGSFTYYLDNVRGRFTISRDNAKNSLYLQMNSLRAEDTAVYYCARQVGHTTFWYFDVWGRGTLVTVSS VL: DIVMTQSPDSLAVSLGERATINCRASKSVSAAGYNFMHWYQQKPGQPPKVLIYYASNLESGVPDRFSGSGSGTDFTLTISSLQAEDVAVYYCLHSREFPFTFGGGTKVEIKR	0.57 nM	–	–	–
Pos 95 Glu (antibody, V domains shown, also called CDRH3 D95>E) VH: EVQLVESGGGLVQPGGSLRLSCAASGFTFSSYAMSWVRQAPGKGLEWVATISDGGSFTYYLDNVRGRFTISRDNAKNSLYLQMNSLRAEDTAVYYCAREVGHTTFWYFDVWGRGTLVTVSS VL: DIVMTQSPDSLAVSLGERATINCRASKSVSAAGYNFMHWYQQKPGQPPKVLIYYASNLESGVPDRFSGSGSGTDFTLTISSLQAEDVAVYYCLHSREFPFTFGGGTKVEIKR	0.785 nM	–	–	–
Pos 95 Gly (antibody, V domains shown, also called CDRH3 D95>G) VH: EVQLVESGGGLVQPGGSLRLSCAASGFTFSSYAMSWVRQAPGKGLEWVATISDGGSFTYYLDNVRGRFTISRDNAKNSLYLQMNSLRAEDTAVYYCARGVGHTTFWYFDVWGRGTLVTVSS VL: DIVMTQSPDSLAVSLGERATINCRASKSVSAAGYNFMHWYQQKPGQPPKVLIYYASNLESGVPDRFSGSGSGTDFTLTISSLQAEDVAVYYCLHSREFPFTFGGGTKVEIKR	0.517 nM	–	–	–
Pos 95 His (antibody, V domains shown, also called CDRH3 D95>H) VH: EVQLVESGGGLVQPGGSLRLSCAASGFTFSSYAMSWVRQAPGKGLEWVATISDGGSFTYYLDNVRGRFTISRDNAKNSLYLQMNSLRAEDTAVYYCARHVGHTTFWYFDVWGRGTLVTVSS VL: DIVMTQSPDSLAVSLGERATINCRASKSVSAAGYNFMHWYQQKPGQPPKVLIYYASNLESGVPDRFSGSGSGTDFTLTISSLQAEDVAVYYCLHSREFPFTFGGGTKVEIKR	0.499 nM	–	–	–
Pos 95 Leu (antibody, V domains shown, also called CDRH3 D95>L) VH: EVQLVESGGGLVQPGGSLRLSCAASGFTFSSYAMSWVRQAPGKGLEWVATISDGGSFTYYLDNVRGRFTISRDNAKNSLYLQMNSLRAEDTAVYYCARLVGHTTFWYFDVWGRGTLVTVSS VL: DIVMTQSPDSLAVSLGERATINCRASKSVSAAGYNFMHWYQQKPGQPPKVLIYYASNLESGVPDRFSGSGSGTDFTLTISSLQAEDVAVYYCLHSREFPFTFGGGTKVEIKR	0.568 nM	–	–	–
Humanised 10G8 H0L0 (antibody, V domains shown) VH: EVQLVESGGGLVQPGGSLRLSCAASGFTFSNYAMSWVRQAPGKGLEWVATISDGGSFTYYLDNVRGRFTISRDNAKNSLYLQMNSLRAEDTAVYYCARDVGHTTFWYFDVWGRGTLVTVSS VL: DIVMTQSPDSLAVSLGERATINCRASKSVSAAGYNFMHWYQQKPGQPPKLLIYYASNLESGVPDRFSGSGSGTDFTLTISSLQAEDVAVYYCLHSREFPFTFGGGTKVEIK	–	0.435 nM	0.00016 s⁻¹	369000 M⁻¹ s⁻¹
Humanised 10G8 H0L2 (antibody, V domains shown) VH: EVQLVESGGGLVQPGGSLRLSCAASGFTFSNYAMSWVRQAPGKGLEWVATISDGGSFTYYLDNVRGRFTISRDNAKNSLYLQMNSLRAEDTAVYYCARDVGHTTFWYFDVWGRGTLVTVSS VL: DIVMTQSPDSLAVSLGERATINCRASKSVSAAGYNFMHWYQQKPGQPPKLLIYYASNLESGVPDRFSGSGSGTDFTLTISSLQAEDVVVYYCLHSREFPFTFGGGTKVEIK	–	0.375 nM	0.000137 s⁻¹	365000 M⁻¹ s⁻¹
Humanised 10G8 H0L3 (antibody, V domains shown) VH: EVQLVESGGGLVQPGGSLRLSCAASGFTFSNYAMSWVRQAPGKGLEWVATISDGGSFTYYLDNVRGRFTISRDNAKNSLYLQMNSLRAEDTAVYYCARDVGHTTFWYFDVWGRGTLVTVSS VL: DIVMTQSPDSLAVSLGERATINCRASKSVSAAGYNFMHWYQQKPGQPPKLLIYYASNLESGVPDRFSGSGSGTDFTLTISSLQAEDVAVYYCLHSREFPFTFGGGTNVEIK	–	0.388 nM	0.000145 s⁻¹	374000 M⁻¹ s⁻¹
Humanised 10G8 H1L0 (antibody, V domains shown) VH: EMQLVESGGGLVQPGGSLRLSCAASGFTFSNYAMSWVRQAPGKGLEWVATISDGGSFTYYLDNVRGRFTISRDNAKNSLYLQMNSLRAEDTAVYYCARDVGHTTFWYFDVWGRGTLVTVSS VL: DIVMTQSPDSLAVSLGERATINCRASKSVSAAGYNFMHWYQQKPGQPPKLLIYYASNLESGVPDRFSGSGSGTDFTLTISSLQAEDVAVYYCLHSREFPFTFGGGTKVEIK	–	0.425 nM	0.000162 s⁻¹	381000 M⁻¹ s⁻¹
Humanised 10G8 H1L2 (antibody, V domains shown) VH: EMQLVESGGGLVQPGGSLRLSCAASGFTFSNYAMSWVRQAPGKGLEWVATISDGGSFTYYLDNVRGRFTISRDNAKNSLYLQMNSLRAEDTAVYYCARDVGHTTFWYFDVWGRGTLVTVSS VL: DIVMTQSPDSLAVSLGERATINCRASKSVSAAGYNFMHWYQQKPGQPPKLLIYYASNLESGVPDRFSGSGSGTDFTLTISSLQAEDVVVYYCLHSREFPFTFGGGTKVEIK	–	0.445 nM	0.000163 s⁻¹	365000 M⁻¹ s⁻¹
Humanised 10G8 H1L3 (antibody, V domains shown) VH: EMQLVESGGGLVQPGGSLRLSCAASGFTFSNYAMSWVRQAPGKGLEWVATISDGGSFTYYLDNVRGRFTISRDNAKNSLYLQMNSLRAEDTAVYYCARDVGHTTFWYFDVWGRGTLVTVSS VL: DIVMTQSPDSLAVSLGERATINCRASKSVSAAGYNFMHWYQQKPGQPPKLLIYYASNLESGVPDRFSGSGSGTDFTLTISSLQAEDVAVYYCLHSREFPFTFGGGTNVEIK	–	0.344 nM	0.000127 s⁻¹	371000 M⁻¹ s⁻¹
Humanised 10G8 H2L0 (antibody, V domains shown) VH: EVQLVESGGGLVQPGGSLRLSCAASGFTFSNYAMSWVRQAPGKGLEWVATISDGGSFTYYLDNVRGRFTISRDNAKNSLYLQMNSLRAEDTAVYYCARDVGHTTFWYFDVWGSGTLVTVSS VL: DIVMTQSPDSLAVSLGERATINCRASKSVSAAGYNFMHWYQQKPGQPPKLLIYYASNLESGVPDRFSGSGSGTDFTLTISSLQAEDVAVYYCLHSREFPFTFGGGTKVEIK	–	0.398 nM	0.000145 s⁻¹	363000 M⁻¹ s⁻¹
Humanised 10G8 H2L2 (antibody, V domains shown) VH: EVQLVESGGGLVQPGGSLRLSCAASGFTFSNYAMSWVRQAPGKGLEWVATISDGGSFTYYLDNVRGRFTISRDNAKNSLYLQMNSLRAEDTAVYYCARDVGHTTFWYFDVWGSGTLVTVSS VL: DIVMTQSPDSLAVSLGERATINCRASKSVSAAGYNFMHWYQQKPGQPPKLLIYYASNLESGVPDRFSGSGSGTDFTLTISSLQAEDVVVYYCLHSREFPFTFGGGTKVEIK	–	0.387 nM	0.000142 s⁻¹	368000 M⁻¹ s⁻¹
Humanised 10G8 H2L3 (antibody, V domains shown) VH: EVQLVESGGGLVQPGGSLRLSCAASGFTFSNYAMSWVRQAPGKGLEWVATISDGGSFTYYLDNVRGRFTISRDNAKNSLYLQMNSLRAEDTAVYYCARDVGHTTFWYFDVWGSGTLVTVSS VL: DIVMTQSPDSLAVSLGERATINCRASKSVSAAGYNFMHWYQQKPGQPPKLLIYYASNLESGVPDRFSGSGSGTDFTLTISSLQAEDVAVYYCLHSREFPFTFGGGTNVEIK	–	0.398 nM	0.00015 s⁻¹	376000 M⁻¹ s⁻¹
